This is an account of results in patent publication US20140363844.

For one data set, the target named is T1, Presegetalin A1[14,32].
T1 chain: GVPVWAFQAKDVENASAPV

Data set [1] deals with T2, Presegetalin A1[14,32]A19V.
T2 chain: GVPVWVFQAKDVENASAPV

Data set [2] has as its target T3, Presegetalin A1[14,32]G14A.
T3 chain: AVPVWAFQAKDVENASAPV

Data set [3] has as its target T4, Presegetalin A1[14,32]P16A.
T4 chain: GVAVWAFQAKDVENASAPV

For data set [4], the target named is T5, Presegetalin A1[14,32]V15A.
T5 chain: GAPVWAFQAKDVENASAPV

In data set [5] the target is T6, Presegetalin A1[14,32]W18A.
T6 chain: GVPVAAFQAKDVENASAPV

The target of data set [6] is T7, Presegetalin A1[14,32]V17A.
T7 chain: GVPAWAFQAKDVENASAPV

Data set [7] deals with T8, Presegetalin A1[14,32] P16p W18A.
T8 chain: GVPVAAFQAKDVENASAPV

Data set [8] concerns the target T9, Presegetalin A1[14,32] P16p W18a.
T9 chain: GVPVAAFQAKDVENASAPV

B1: Silene vulgaris PCY1-c150 (recombinant) (protein)
chain: MASSAFSKPLNYPPVRRDETVVNDYFGVKVADPYRWLEDQEGEETIEFVDNQVKLADSVLEECELRDKIKQKITDLVNFPRCGVPFKRADKYFHFYNSGLQAQNVLHMQDDLDGKPEVLYDPNLREGGRSGLHQYAVSEDAKYLAFGINSGFSEWLTIKVMRIEDRSVLPDSLSWVKFSGIHWTHDSKGFFFSPYPPATEGLEVGMKTNSSFNQELRYHFLGTDESEDVLCWRDPENPTHHLKSDLTADGKYLLLYISAGCDATNKVYYMDLTTLPNGLEGLRGGKDLLPFKRLIDEFDATYTAIANDGSVFTFLTNKDAPRNKIVRVDLNNPDIWTEVIPESKKDVLESAHAVNGNQLLVRYLSDVKHILEVRDLESGSLLHRLPVDLGVIDGITARPQDSVVFFKFTSFLTPTIIYQCDLKEDSPQLKIFRESVVPEFDRSEFEVKQVFVSAKDGTKIPMFIVARKGISLDGSHPCELHGYGGFSISIKPFFSASRIVILKHLDAVFCVANIRGGGEYGEEWHQAGWREKKQIVFDDFISSAEYLVSSGYTQPQKLSIEGGSNGGLLVAACINQRPDLFGCAQANCGVMDMLRFHKFTLGYLWTSDYGCSEKEEDFNWLIKYSPIHNVRRPWEHSKNPQLQYPAVMILTADHDDRVVPLHSFKLLATLQHVLCTSLEDSPQKNPIIARIERKASHCGRATMKQIDEAADRYAFMAKALRATWTD
As to B1, in the data set with Presegetalin A1[14,32], the “production of segetalin A (LC/MS)” value is recorded as “has the same enzymatic activity as that of S. vaccaria PCY1, (FIG. 7d) albeit weaker than that of S. vaccaria PCY1 for production of segetalin A”.

B2: Dianthus superbus PCY1-c250 (recombinant) (protein)
chain: MASCGFTKPLHYPTARRDETVVDDYFGLKVADPYRWLEDRDSEETKKFVEDQVKFTDSVLEECELIGKVKQKIIDYVSFPRWSVPLRRANKYFHFYNSGLQSQNVYRMQDGLDGKPEVICDPNLREDGRTGLSVYSVSEDAKYFAFGIAEGFTEWLTIRVMRTEDRSMLPDCLTEVKFTTVHWTHDNKGFFYCAYPPLEEGQDHMVHASISQEARYHYLGTDQSEDILCWKDPENPTHHFRSYFTDDGKYFVLYILEGCDKKNKVYCLDLTKLPNGPESLRGREGSAPFIKLVDSFDASYTVIANDDSVFTLLTDKDAKRCKLVRVDLNNPSVWTDVIPESKDLLESAHAVNGNQLLLRYLRDVKHVLELRDLESGSLLHSIPIDIGAVDGINARRGDSIVFFRFTSILTPGIIYQCDLKNDPTQLNIFRESLVPGFDRSEFEVKQVFVPGKDGTKIPAFIAARKGISLDGSHPCEMHGYGGYGHNMMPTFSASRLVFLKHLGGVFCLANIRGGGEYGVDWHKAGARENKQTSFDDFISSAEFLVSSGYSAPKKICIEGGSNGGLLIAVCITQRPDLFGCAEPNCGPMDMLRFHKFTLGYLWTDEYGNPDNEEEFNWLIKYSPLHNVRRPWEQPGHEQTQYPATMIITADHDDRVVPMHSYKMIATMQHVLCTSLENSPQKYPIICRIQRKASHYGRSTMVQIAEVADRYGFMAKALNATWTD
With B2, the “activity on alanine scan mutant (LC/MS)” value in [1], in data set [3], in data set [4] and in data set [6] was “D. superbus PCY1-c250 activity was comparable to that of S. vaccaria PCY1” each time. The “cyclic peptide product (LC/MS)” value is “there was no detectable cyclic peptide made from No. 7 by D. superbus PCY1-c250” in data set [2] and “D. superbus PCY1-c250 appeared to produce relatively more cyclic peptide than did S. vaccaria PCY1 from No. 11” in data set [5]. Besides, the “production of segetalin A (LC/MS)” value in the data set with Presegetalin A1[14,32] is recorded as “show strong enzymatic activity ... similar to that of S. vaccaria PCY1”.

B3: Dianthus superbus PCY1-c1141 (recombinant) (protein)
chain: MAVSCGFTKTLHYPPVRRDETVVDDYFGLKIADPYRWLEDLNSEETKKFVDDQVKFTESVLEECELIGKVKQKIIDYVSFPRWSVPLRRANKYFHFYNSGLQSQNVYRMQDGLDGKPEVVYDPNLREGGRTGLTLYSVSEDANYFAFGIAEGFTEWLTIRVMRIEDRSMLPDCITGVKHSGIHWTHDNKGFFYCPYPPLEEGQDLMIHPSMSQEVRYHFIGTDQSEDILCWKDTVNPTHHLKSYFTDDGKYFVLYILEGCNNMNKVYCLDLTELPNGPESLRGREGSAPFIKLVDSFDALYTAIANDGSVFTFLTDKDATRRKLVRVDLNNPSVWTDVLPESKDLLESAHAVNGNQLLIRYLSDVKHILELRDLESGSLLHRIPIDIGAVDGTINARRGDSVVFFKFTSILTPSIIYQCDLKNDPPQLKIFRESVVPGFDRSEFEVKQLFAPSKDGTMIPTFVAARKGISLDGSHPCEMHGYGAYGQCMMPTFSASRLVFLKHLGGVFCLANIRGGGEYGVEWHKAGARENKQNSYDDFIASAEFLVSSGYTAPKKICIEGGSNGGLLIAVCITQRPDLFGCAEPNCGPMDMIRFHHFTQGYVVMSEYGSPDKEEEFNWLIKYSPLHNVRRPWEQPGHEQTQYPATMIITADHDDRVVPFHSYKMIATMQHVLCTSLENSPQKFPIICRIQRNASHYGRATMVQIAEVADRYGFMAKALNATWTD
Consider B3, for which, in the data set with Presegetalin A1[14,32], the “production of segetalin A (LC/MS)” value is recorded as “show strong enzymatic activity ... similar to that of S. vaccaria PCY1”. Also, the “cyclic peptide product (LC/MS, MS/MS)” value in [7] is “S. vaccaria PCY1 and D. superbus PCY1-c1141 made cyclic peptides from both No. 31 and No. 32”. Moreover, in data set [8], the “cyclic peptide product (LC/MS, MS/MS)” value was “S. vaccaria PCY1 and D. superbus PCY1-c1141 made cyclic peptides from both No. 31 and No. 32”; the “cyclization (LC/MS)” value is “also demonstrated the ability to cyclize alternating D- and L-amino acid polypeptide substrates (FIG. 12a) in a similar manner to S. vaccaria PCY1”; the “relative activity (LC/MS)” value is reported as “D. superbus PCY1-c1141 was relatively more active on No. 32 than was S. vaccaria PCY1”.
